Source: paper PMC3057930 (Proteins, 2010)
Marks after values point to notes of the source that are not given here.

Columns and labels:
CaM1-148 [1] = molecular target: T1, CaM1-148 (Paramecium tetraurelia, UniProt P07463); assay: CaM titration of Fl-βCaNp, fluorescence anisotropy, CaM1-148; type: binding; settings: CaM1-148, Ca2+-saturated (limiting value), 10 mM CaCl2, 100 nM Fl-βCaNp, stoichiometric titration, upper limit, pH 7.4, 22 °C
CaM1-148 [2] = molecular target: T1, CaM1-148; assay: Population distribution of calcium ligation species
CaM C-domain vs N-domain = settings: ref [15]; cited from earlier work
CaN [3] = settings: cited from earlier work
CaN [4] = settings: CaM binding to CaNA; ref [9],[10]; cited from earlier work
15N-(Ca^2+)4-CaM1-148 = assay: 15N T2 relaxation by NMR; type: physicochemical, Paramecium; settings: 500 μM 15N-CaM1-148, 10-20% molar excess of peptide; 5 mM CaCl2, 50 mM HEPES, pH 7.4; 22 °C; 800 MHz; excluding mobile termini
(Ca^2+)4-CaM1-148 = (Ca^2+)4-CaM1-148 (Paramecium tetraurelia, UniProt P07463); settings: Ca2+-CaM1-148 bound to melittin; 10 mM CaCl2; ref Sorensen et al [42]; cited from earlier work

## CC[C@H](C)[C@H](NC(=O)[C@H](C)NC(=O)[C@H](CCCNC(=N)N)NC(=O)[C@@H](NC(=O)[C@H](CCCCN)NC(=O)[C@H](CC(N)=O)NC(=O)[C@H](CCCNC(=N)N)NC(=O)[C@@H](NC(=O)[C@@H](NC(=O)[C@H](CCC(=O)O)NC(=O)[C@H](CCCCN)NC(=O)[C@H](CCCNC(=N)N)NC(=O)[C@H](C)N)[C@@H](C)CC)[C@@H](C)CC)[C@@H](C)CC)C(=O)NCC(=O)N[C@@H](CCCCN)C(=O)N[C@@H](CCSC)C(=O)N[C@@H](C)C(=O)N[C@@H](CCCNC(=N)N)C(=O)N[C@H](C(=O)N[C@@H](Cc1ccccc1)C(=O)N[C@@H](CO)C(=O)N[C@H](C(=O)N[C@@H](CC(C)C)C(=O)N[C@@H](CCCNC(=N)N)C(=O)O)C(C)C)C(C)C [βCaNp]
CaM1-148 [1]
  Kd: ≤ 1 nM
CaM1-148 [2]; CaM1-148, presence of βCaNp
  cooperativity term kI–II: 19.90 M⁻¹

## CaM1-148: full-length Paramecium CaM, residues 1-148
CaM1-148 [2]; CaM1-148, absence of βCaNp
  cooperativity term kIII–IV: 54.39 M⁻¹
  cooperativity term kI–II: 1.73 M⁻¹
CaM C-domain vs N-domain
  calcium affinity of C-domain relative to N-domain: ~ 25 fold

## Calmodulin [CaM]
CaM1-148 [2]; CaM alone, simulation
  Ca2+ concentration of maximal population of intermediate (0011): 2 µM
  maximal population of intermediate (0011): 70%
CaN [3]; ref [35]
  dissociation constant of (Ca2+)4-CaM from CaN (range in words): low nM range
CaN [3]; ref [36]
  Kd of full-length CaM from CaN (range in words): pM range
CaN [4]
  increase of phosphatase activity of CaN: 10 fold

## Mammalian CaM [mCaM]
CaM C-domain vs N-domain
  calcium affinity of C-domain relative to N-domain: about 10 fold

## Melittin: another peptide that forms a 1:1 complex with CaM (GIGAVLKVLTTGLPALISWIKRKRQQG)
15N-(Ca^2+)4-CaM1-148
  Average T2: 0.050 ± 0.006 s
(Ca^2+)4-CaM1-148
  Stokes Radius: 22.94 ± 0.32 ^f Å
